Assay results reported in article PMC8795117.

Experiments:
[1] = target: BmdC (Thermoactinomyces vulgaris F-5595); experiment: SEC; size-exclusion chromatography of BmdC alone (Supplementary Fig. 2e)
[2] = target: BmdB (Thermoactinomyces vulgaris F-5595); experiment: SEC; full-length BmdB and BmdC at 1–8 μM mixed (increasing BmdC, fixed BmdB), Superdex200 Increase 10/300, 50 mM Tris-HCl pH 7.5, 200 mM NaCl, 1 mM DTT
[3] = target: BmdB (Thermoactinomyces vulgaris F-5595)

**Q.** How did the stoichiometry N [1] turn out when BmdC (enzyme) was run?
**A.** 2

**Q.** And the stoichiometry N (BmdB molecules per BmdC dimer) [2]?
**A.** 2

**Q.** For BmdC_D225R (enzyme), which decrease in oxidation to bacillamide D in peptide synthesis assays [3] is on record?
**A.** 50%
